{"source": "paper PMC6281755", "about": "(Diabetes, obesity & metabolism, 2018)", "key": {"[1]": {"conditions": "in vivo; cited from earlier work"}, "[2]": {"conditions": "dog, in vivo, po"}, "[3]": {"conditions": "dog, in vivo"}, "glucose metabolism": {"test_system": "glucose metabolism", "type": "in vivo, dog", "conditions": "dogs, estimate (90% CI)"}, "[4]": {"conditions": "dog, in vivo", "remark": "listed apart in the source"}}, "note": "Read-outs that look alike come from different tables or passages of the source.", "data": [{"substance": "insulin tregopil", "values": [{"measurement": "Time to peak concentration (tmax)", "setting": "[1]", "result": 30, "unit": "min"}, {"measurement": "Cmax of first dose compared with second dose", "setting": "[2]", "result": 117, "unit": "%"}, {"measurement": "Insulin AUC0–120 of first dose compared with second dose", "setting": "[2]", "result": 118, "unit": "%"}, {"measurement": "Mean Cmax of first dose compared with second dose", "setting": "[2]", "result": 88, "unit": "%"}, {"measurement": "tmax", "setting": "[2]", "result": 20, "unit": "min"}, {"measurement": "Median tmax", "setting": "[3]", "result": 20, "unit": "min"}, {"measurement": "Off-times", "setting": "dog, in vivo", "result": "≤ 120", "unit": "min"}, {"measurement": "tmax", "setting": "dog, in vivo", "result": "≤ 20", "unit": "min"}, {"measurement": "Duration of PD effect after a dose", "setting": "dogs, oral dose, statement in discussion", "result": 90, "unit": "min"}, {"measurement": "Mean difference (human insulin-tregopil): GIR AUC0-120 min", "setting": "glucose metabolism; intraportal 3.6 pmol/kg/min", "result": -24.1, "unit": "mg/kg"}, {"measurement": "Mean difference (human insulin-tregopil): NHGB, last 30 min period 1", "setting": "glucose metabolism; intraportal 3.6 pmol/kg/min", "result": 0.53, "unit": "mg/kg/min"}, {"measurement": "Mean difference (human insulin-tregopil): GIR AUC120-240 min", "setting": "glucose metabolism; intraportal 12.0 pmol/kg/min", "result": -74, "unit": "mg/kg"}, {"measurement": "Mean difference (human insulin-tregopil): NHGB, last 30 min period 2", "setting": "glucose metabolism; intraportal 12.0 pmol/kg/min", "result": 0.30, "unit": "mg/kg/min"}, {"measurement": "Mean difference (human insulin-tregopil): non-hepatic glucose uptake, last 30 min period 2", "setting": "glucose metabolism; intraportal 12.0 pmol/kg/min", "result": -1.6, "unit": "mg/kg/min"}, {"measurement": "Mean difference (human insulin-tregopil): ΔNHGB, period 1 to period 2", "setting": "glucose metabolism; intraportal 3.6 then 12.0 pmol/kg/min", "result": 0.2, "unit": "mg/kg/min"}, {"measurement": "Fraction extracted on first-pass by the liver", "setting": "[4]", "result": "one-third"}]}]}
